According to publication PMC4070737 (Cytoskeleton (Hoboken, N.J.), 2013):

Target: the molecule itself
Assay: AUC

B1: EB1_(248), activated fragment of human EB1 lacking the autoinhibitory tail domain (domain or fragment, UniProt Q15691 1-248, looked up)
chain: MAVNVYSTSVTSDNLSRHDMLAWINESLQLNLTKIEQLCSGAAYCQFMDMLFPGSIALKKVKFQAKLEHEYIQNFKILQAGFKRMGVDKIIPVDKLVKGKFQDNFEFVQWFKKFFDANYDGKDYDPVAARQGQETAVAPSLVAPALNKPKKPLTSSSAAPQRPISTQRTAAAPKAGPGVVRKNPGVGNGDDEAAELMQQVNVLKLTVEDLEKERDFYFGKLRNIELICQENEGENDPVLQRIVDILYA
For B1, the “stoichiometry N” value was 2.
